The values below come from the FLAb antibody collection (doi:10.7554/elife.23156).

B1: scFv; the commonest letter at each place (parent)
chain 1: EVKLDETGGGLVQPGRPMKLSCVASGFTFSDYWMNWVRQSPEKGLEWVAQIRNKPYNYETYYSDSVKGRFTISRDDSKSSVYLQMNNLRVEDMGIYYCTGSYYGMDYWGQGTSVTVS
chain 2: DVVMTQTPLSLPVSLGDQASISCRSSQSLVHSNGNTYLRWYLQKPGQSPKVLIYKVSNRFSGVPDRFSGSGSGTDFTLKISRVEAEDLGVYFCSQSTHVPWTFGGGTKLEIK

Where only a bound is given, the exact number is not on record here.

The variants in the series “fluorescein” derive from B1. The series can be described thus: Kd (Tite-Seq). The settings on record: with fluorescein; format: scFv 4-4-20, heavy + light.
Series [1] covers variants of B1. The series can be described thus: yeast surface expression (ratio to wild type); higher = more expressed. The note with it: format: scFv 4-4-20, heavy + light.

For the variant chain 1 S101L Y103W Y107W, the Kd in the series with fluorescein was not below 10 µM. Besides, the yeast surface expression in series [1] worked out at 0.29.
Regarding chain 1 S101L M105D D106L, the dissociation constant Kd with fluorescein was not below 10 µM. For the same variant, in series [1], the yeast surface expression was determined as 0.276.
As to chain 1 S30T W33V, the Kd with fluorescein is not below 10 µM. Moreover, the yeast surface expression in series [1] came out at 0.899.
For chain 1 S30T W33F the same measures were 0.0534 µM and 0.909.
On the same counts, the results for chain 1 S101N M105P are not below 10 µM and 0.537.
On the same counts, the results for chain 1 S101K Y103S are not below 10 µM and 0.461.
In the case of chain 1 S101K Y103R, the equilibrium dissociation constant (Kd) with fluorescein is not below 10 µM. For the same variant, the yeast surface expression in series [1] was found to be 0.714.
Turning to chain 1 S101K Y103T, the Kd in the series with fluorescein is not below 10 µM. The yeast surface expression in series [1] came to 0.456.
Consider chain 1 S101L Y102V, for which the dissociation constant (Kd) with fluorescein was not below 10 µM. For the same variant, in series [1], the yeast surface expression was 0.401.
On the same counts, the results for chain 1 S101L Y102A are not below 10 µM and 0.514.
For chain 1 S101L Y102W the same measures were not below 10 µM and 0.407.
On the same counts, the results for chain 1 S101F G104I are not below 10 µM and 0.187.
For the variant chain 1 S101F G104L, the Kd with fluorescein is not below 10 µM. The yeast surface expression in series [1] worked out at 0.778.
As to chain 1 S101F G104Q, the Kd in the series with fluorescein is not below 10 µM. Also, in series [1], the yeast surface expression worked out at 0.241.
On the same counts, the results for chain 1 S101P Y107F W108F are not below 10 µM and 0.239.
For chain 1 S101G Y103R the same measures were not below 10 µM and 0.949.
On the same counts, the results for chain 1 S101G Y103C are not below 10 µM and 0.678.
On to chain 1 S101Q Y102D W108I, for which the dissociation constant (Kd) in the series with fluorescein is not below 10 µM. The yeast surface expression in series [1] was 0.495.
With chain 1 S101E M105V D106P, the Kd with fluorescein was not below 10 µM. For the same variant, the yeast surface expression in series [1] came to 0.387.
chain 1 S30W Y32G: in the series with fluorescein, the dissociation constant Kd was determined as 1.55 µM. For the same variant, the yeast surface expression in series [1] came to 0.706.
On the same counts, the results for chain 1 S30W Y32Q are not below 10 µM and 0.646.
For the variant chain 1 S30W Y32C, the Kd in the series with fluorescein is 5.66 µM. The yeast surface expression in series [1] turned out to be 0.838.
On the same counts, the results for chain 1 S101R D106T are not below 10 µM and 0.466.
On the same counts, the results for chain 1 S101R D106L are not below 10 µM and 0.0991.
On the same counts, the results for chain 1 S101R D106N are not below 10 µM and 0.225.
chain 1 S101H Y103N: the Kd with fluorescein was not below 10 µM. Further, the yeast surface expression in series [1] is 0.984.
On the same counts, the results for chain 1 S101H Y103L are not below 10 µM and 0.78.
For chain 1 S101H Y103Q the same measures were not below 10 µM and 0.871.
For chain 1 S101E Y102Q W108C the same measures were not below 10 µM and 0.541.
Take chain 1 S30Y Y32S W33T: the Kd in the series with fluorescein was not below 10 µM. Also, in series [1], the yeast surface expression was found to be 0.934.
For chain 1 S101C G109D the same measures were not below 10 µM and 0.328.
For chain 1 S101C G109N the same measures were not below 10 µM and 0.251.
For the variant chain 1 S101C G109A, the Kd in the series with fluorescein is not below 10 µM. Also, the yeast surface expression in series [1] is 0.363.
For chain 1 S101L D106G the same measures were not below 10 µM and 0.289.
On the same counts, the results for chain 1 S101L D106K are not below 10 µM and 0.379.
On the same counts, the results for chain 1 S101D D106C W108N are not below 10 µM and 0.369.
For chain 1 S30W W36D, the equilibrium dissociation constant (Kd) in the series with fluorescein is not below 10 µM. For the same variant, in series [1], the yeast surface expression is 0.104.
For chain 1 S101A D106L, the Kd in the series with fluorescein was 0.00166 µM. Moreover, in series [1], the yeast surface expression came out at 0.302.
On the same counts, the results for chain 1 S101I Y103P M105E are not below 10 µM and 0.462.
For chain 1 S30V D31P, the Kd with fluorescein is not below 10 µM. Further, in series [1], the yeast surface expression is 0.754.
On the same counts, the results for chain 1 S30V D31M are 0.0372 µM and 0.223.
As for chain 1 S30Y W36N, the dissociation constant Kd with fluorescein was not below 10 µM. For the same variant, the yeast surface expression in series [1] worked out at 0.436.
For chain 1 S30Y W36A the same measures were not below 10 µM and 0.404.
On the same counts, the results for chain 1 S101D G109H are not below 10 µM and 0.247.
Turning to chain 1 S101D G109I, the dissociation constant (Kd) with fluorescein is not below 10 µM. Moreover, the yeast surface expression in series [1] turned out to be 0.22.
For the variant chain 1 S101D G104D Y107K, in the series with fluorescein, the equilibrium dissociation constant (Kd) is not below 10 µM. Besides, the yeast surface expression in series [1] is 0.674.
For chain 1 S101D Y102P the same measures were not below 10 µM and 0.719.
As to chain 1 S101D Y102F, the Kd with fluorescein is not below 10 µM. Further, in series [1], the yeast surface expression came to 0.93.
For chain 1 S101G G104Y the same measures were not below 10 µM and 0.901.
chain 1 S101I G104Q: the Kd in the series with fluorescein was not below 10 µM. For the same variant, in series [1], the yeast surface expression was 0.397.
For chain 1 S101I G104T the same measures were not below 10 µM and 0.4.
On the same counts, the results for chain 1 S101I G104K are not below 10 µM and 0.482.
For chain 1 S101D Y107E the same measures were not below 10 µM and 1.03.
On to chain 1 S101D Y107S, for which the Kd in the series with fluorescein is not below 10 µM. In addition, the yeast surface expression in series [1] came to 0.672.
On the same counts, the results for chain 1 S101D Y107I are not below 10 µM and 1.02.
On the same counts, the results for chain 1 S101P Y103R are not below 10 µM and 0.277.
For chain 1 S101M G109W the same measures were not below 10 µM and 0.231.
For the variant chain 1 S101M G109H, the Kd in the series with fluorescein was not below 10 µM. Further, in series [1], the yeast surface expression amounted to 0.229.

One may read the Kd as the constant that tells how readily two partners part at equilibrium.
